Among the data in paper PMC11098746 (2024) are binding score values, retold here.

No end group written: not given here.

The experiment concerns the target Circumsporozoite protein (CSP) (Plasmodium falciparum (isolate 3D7), UniProt Q7K740). As to the kind of experiment: AVEXIS screen signal:noise (double-corrected).

Circumsporozoite protein (CSP), sequence (Q7K740 19-374): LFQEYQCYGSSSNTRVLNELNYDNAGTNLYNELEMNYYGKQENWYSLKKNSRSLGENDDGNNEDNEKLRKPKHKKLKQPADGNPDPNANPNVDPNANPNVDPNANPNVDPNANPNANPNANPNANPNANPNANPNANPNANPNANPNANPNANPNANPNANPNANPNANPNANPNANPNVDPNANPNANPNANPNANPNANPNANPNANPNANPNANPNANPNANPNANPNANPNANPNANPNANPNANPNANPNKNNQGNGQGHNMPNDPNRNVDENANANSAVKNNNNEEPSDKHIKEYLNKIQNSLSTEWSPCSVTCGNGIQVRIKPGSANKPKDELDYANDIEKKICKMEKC

The molecule MTGLSMDGGGSPKGDVDPFYYDYETVRN (also: human Fc-tagged dimer) [ADP286] displayed a binding score of 1.14.

B1: ADP388 (protein)
chain: SEGHGGAQLQAELRSLKEAFSNFSSSTLTEVQAISTHGGSVGDKITSLGAKLEKQQQDLKADHDALLFHLKHFPVDLRFVACQMELLHSNGSQRTCCPVNWVEHQGSCYWFSHSGKAWAEAEKYCQLENAHLVVINSWEEQKFIVQHTNPFNTWIGLTDSDGSWKWVDGTDYRHNYKNWAVTQPDNWHGHELGGSEDCVEVQPDGRWNDDFCLQVYRWVCEKRRNATGEVA
modifications: bait human Fc-tagged dimer
B1: the binding score amounted to 0.484.

B2: ADP345 (protein)
chain: MALLAGGLSRGLGSHPAAAGRDAVVFVWLLLSTWCTAPARAIQVTVSNPYHVVILFQPVTLPCTYQMTSTPTQPIVIWKYKSFCRDRIADAFSPASVDNQLNAQLAAGNPGYNPYVECQDSVRTVRVVATKQGNAVTLGDYYQGRRITITGNADLTFDQTAWGDSGVYYCSVVSAQDLQGNNEAYAELIVLGRTSGVAELLPGFQAGP
modifications: bait human Fc-tagged dimer
Molecule B2 showed a binding score of 0.842.

B3: ADP149 (protein)
chain: MAWKHVPFLVMISLLSLSPNHLFLAQLIPDPEDVERGNDHGTPIPTSDNDDNSLGYTGSRLRQEDFPPRIVEHPSDLIVSKGEPATLNCKAEGRPTPTIEWYKGGERVETDKDDPRSHRMLLPSGSLFFLRIVHGRKSRPDEGVYVCVARNYLGEAVSHNASLEVAILRDDFRQNPSDVMVAVGEPAVMECQPPRGHPEPTISWKKDGSPLDDKDERITIRGGKLMITYTRKSDAGKYVCVGTNMVGERESEVAELTVLERPSFVKRPSNLAVTVDDSAEFKCEARGDPVPTVRWRKDDGELPKSRYEIRDDHTLKIRKVTAGDMGSYTCVAENMVGKAEASATLTVQEPPHFVVKPRDQVVALGRTVTFQCEATGNPQPAIFWRREGSQNLLFSYQPPQSSSRFSVSQTGDLTITNVQRSDVGYYICQTLNVAGSIITKAYLEVTDVIADRPPPVIRQGPVNQTVAVDGTFVLSCVATGSPVPTILWRKDGVLVSTQDSRIKQLENGVLQIRYAKLGDTGRYTCIASTPSGEATWSAYIEVQEFGVPVQPPRPTDPNLIPSAPSKPEVTDVSRNTVTLSWQPNLNSGATPTSYIIEAFSHASGSSWQTVAENVKTETSAIKGLKPNAIYLFLVRAANAYGISDPSQISDPVKTQDVLPTSQGVDHKQVQRELGNAVLHLHNPTVLSSSSIEVHWTVDQQSQYIQGYKILYRPSGANHGESDWLVFEVRTPAKNSVVIPDLRKGVNYEIKARPFFNEFQGADSEIKFAKTLEEAPSAPPQGVTVSKNDGNGTAILVSWQPPPEDTQNGMVQEYKVWCLGNETRYHINKTVDGSTFSVVIPFLVPGIRYSVEVAASTGAGSGVKSEPQFIQLDAHGNPVSPEDQVSLAQQISDVVKQP
modifications: bait human Fc-tagged dimer
Regarding B3, the binding score came out at 0.924.

B4: ADP281 (protein)
chain: SIYEMVVDVLFLCFAIDTKYNDGSPGREFYMDKVLMEFVENSRKAMKEAGKGGVADSRELKPMASG
modifications: also: human Fc-tagged dimer
B4 showed a binding score of 0.848.

B5: ADP137 (protein)
chain: MAVVGNPRSWSCQWLPILILLLGTGHGPGVEGVTHYKAGDPVILYVNKVGPYHNPQETYHYYQLPVCCPEKIRHKSLSLGEVLDGDRMAESLYEIRFRENVEKRILCHMQLSSAQVEQLRQAIEELYYFEFVVDDLPIRGFVGYMEESGFLPHSHKIGLWTHLDFHLEFHGDRIIFANVSVRDVKPHSLDGLRPDEFLGLTHTYSVRWSETSVERRSDRRRGDDGGFFPRTLEIHWLS
modifications: bait human Fc-tagged dimer
B5 gave a binding score of 0.831.

B6: ADP264 (protein)
chain: GRFSLFGLGGEPGGGAAGPAAAADGGTVDLREMLAVSVLAAVRGGDEVRRVRESNVLHEKSKGKTREGAEDKMTSGDVLSNRKMFYLLKTAFPSVQINTEEHVDAADQEVILWDHKIPEDILKEVTTPKEVPAESVTVWIDPLDATQEYTEDLRKYVTTMVCVAVNGKPMLGVIHKPFSEYTAWAMVDGGSNVKARSSYNEKTPRIVVSRSHSGMVKQVALQTFGNQTTIIPAGGAGYKVLALLDVPDKSQEKADLYIHVTYIKKWDICAGNAILKALGGHMTTLSGEEISYTGSDGIEGGLLASIRMNHQALVRKLPDLEKTGHK
modifications: bait human Fc-tagged dimer
Regarding B6, the binding score was 0.964.
